Assay [1] addresses T1, WD1^pept, TAMRA-conjugated 11-amino-acid peptide centered on the first tryptophan motif of DIC1 (TAMRA-conjugated (position not given)).
T1 construct: 11 residues of dynein intermediate chain 1 centered on the first tryptophan motif (WD1) in AS loop 1; also called WD1 peptide; peptide of the first DIC1 tryptophan motif
As to the kind of experiment: fluorescence polarisation; TAMRA-conjugated DIC1 tryptophan-motif peptides with purified KLC1 or KLC2 TPR domain; KD values determined at 150 mM NaCl. To be noted: both partners purified. (In general: In fluorescence polarisation assays a small probe gives low polarisation when free and higher when bound to something large.)

Assay [2] has as its target T2, mCherry-tagged DIC1a (dynein intermediate chain 1, isoform a), wild-type (UniProt Q63100 1-643).
T2 construct: cytoplasmic dynein intermediate chain 1, neuron-specific isoform DIC1a with both alternatively spliced regions (AS loop 1 with WD1, AS loop 2 with WD2); also called WT DIC1a; source: COS cells, cotransfected, in lysate
As to the kind of experiment: co-IP; COS cells cotransfected with mCherry-tagged DIC1a (wild-type or WD mutants) and HA-tagged KLC1 or KLC2; IP with anti-mCherry; western blotting with anti-DIC and anti-HA. To be noted: partners not purified. A general note: A western blot detects proteins with antibodies after separation by electrophoresis.

T2 sequence (Q63100 whole entry, canonical isoform): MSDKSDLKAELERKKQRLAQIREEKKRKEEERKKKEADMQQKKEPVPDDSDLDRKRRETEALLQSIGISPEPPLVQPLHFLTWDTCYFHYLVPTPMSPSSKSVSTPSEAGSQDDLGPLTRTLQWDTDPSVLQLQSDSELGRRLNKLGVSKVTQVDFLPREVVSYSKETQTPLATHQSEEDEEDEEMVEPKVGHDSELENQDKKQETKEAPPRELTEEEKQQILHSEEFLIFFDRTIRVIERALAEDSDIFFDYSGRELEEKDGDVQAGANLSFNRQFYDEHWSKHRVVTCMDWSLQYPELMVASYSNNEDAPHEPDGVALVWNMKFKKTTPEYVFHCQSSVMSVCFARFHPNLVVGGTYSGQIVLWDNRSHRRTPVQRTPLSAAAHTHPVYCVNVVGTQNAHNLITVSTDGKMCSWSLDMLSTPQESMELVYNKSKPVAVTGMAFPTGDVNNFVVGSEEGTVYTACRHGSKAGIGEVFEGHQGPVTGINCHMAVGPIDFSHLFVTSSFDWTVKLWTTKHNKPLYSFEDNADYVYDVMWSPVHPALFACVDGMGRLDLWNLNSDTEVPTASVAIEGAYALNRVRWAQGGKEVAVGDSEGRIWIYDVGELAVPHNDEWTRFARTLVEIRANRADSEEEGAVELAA

B1: KLC1^TPR, purified TPR domain of KLC1 (domain or fragment)
chain: YEIPARLRTLHNLVIQYASQGRYEVAVPSCKQALEDLEKTSGHDHPDVATMLNILALVYRDQNKYKDAANLLNDALAIREKTLGRDHPAVAATLNNLAVLYGKRGKYKEAEPLCKRALEIREKVLGKDHPDVAKQLNNLALLCQNQGKYEEVEYYYQRALGIYQTKLGPDRTPNVAKTKNNLASCYLKQGKFKQAETLYKEILTRAHEAEFGSVDDENKPIWMHAEEREECKGKQKDGSAFGEYGGWYKACKVDSPTVTTTLKNLGALYRRQGKFEAAETLEEAAMRSRKQGL
As usually defined, the Kd is the constant that tells how readily two partners part at equilibrium. Low readings indicate higher affinity, high ones lower affinity. In the case of B1, in assay [1], binding was characterised by a dissociation constant (Kd) of 7.58 ± 0.61 µM.

B2: HA-tagged KLC2 (kinesin light chain 2) (natural protein, UniProt O88448 1-599, looked up)
chain: MATMVLPREEKLSQDEIVLGTKAVIQGLETLRGEHRALLAPLASHEAGEAEPGSQERCLLLRRSLEAIELGLGEAQVILALSSHLGAVESEKQKLRAQVRRLVQENQWLREELAGTQQKLQRSEQAVAQLEEEKQHLLFMSQIRKLDEMLPQEEKGDVPKDSLDDLFPNEDEQSPAPSPGGGDVAAQHGGYEIPARLRTLHNLVIQYASQGRYEVAVPLCKQALEDLEKTSGHDHPDVATMLNILALVYRDQNKYKDAAHLLNDALAIREKTLGKDHPAVAATLNNLAVLYGKRGKYKEAEPLCKRALEIREKVLGKFHPDVAKQLSNLALLCQNQGKAEEVEYYYRRALEIYATRLGPDDPNVAKTKNNLASCYLKQGKYQDAETLYKEILTRAHEKEFGSVNGENKPIWMHAEEREESKDKRRDRRPMEYGSWYKACKVDSPTVNTTLRTLGALYRPEGKLEAAHTLEDCASRSRKQGLDPASQTKVVELLKDGSGRGHRRGSRDVAGPQSESDLEESGPAAEWSGDGSGSLRRSGSFGKLRDALRRSSEMLVRKLQGGGPQEPNSRMKRASSLNFLNKSVEEPVQPGGRVFLTAAL
notes: kinesin light chain 2; source: COS cells, cotransfected, in lysate
As to B2, the “fold co-immunoprecipitated relative to KLC1” value in assay [2] stood at 5 fold.

The values above are taken from article PMC4893161, “The Dynamic Localization of Cytoplasmic Dynein in Neurons Is Driven by Kinesin-1” (Neuron, 2016).
